Assay results taken from patent publication US20020058276A1 (GOVERNING COUNCIL OF THE UNIVERSITY OF TORONTO, published 2002).
One block for each binder: values may come before it.

Biological target: wild type human presenilin 1 (PS1) (human, UniProt P49768 1-467)
Assay: cell-based or functional assay

Aβ42/Aβ40 Ratio: 0.09 normalized to mock transfection (1.0)
B1: PAMPΔ312-369 (other, not shown: small tags and cut ends)
chain: NSVERKIYIPLNKTAPCVRLLNATHQIGCQSSISGDTGVIHVVEKEEDLQWVLTDGPNPPYMVLLESKHFTRDLMEKLKGRTSRIAGLAVSLTKPSPASGFSPSVQCPNDGFGVYSNSYGPEFAHCREIQWNSLGNGLAYEDFSFPIFLLEDENETKVIKQCYQDHNLSQNGSAPTFPLCAMQLFSHMHAVISTATCMRRSSIQSTFSINPEIVCDPLSDYNVWSMLKPINTTGTLKPDDRVVVAATRLDSRSFFWNVAPGAESAVASFVTQLAAAEALRTSLELWMHTDPVSQKNESVRNQVEDLLATLEKSGAGVPAVILRRPNQSQPLPPSSLQRFLRARNISGVVLADHSGAFHNKYYQSIYDTAENINVSYPEWLSPEEDLNFVTDTAKALADVATVLGRALYELAGGTNFSDTVQADPQTVTRLLYGFLIKANNSWFQSILRQDLRSYLGDGPLQHYIAVSSPTNTTYVVQYALANLTGTVVNLTREQCQDPSKVPSENKDLYEYSWVQGPLHSNETDRLPRCVRSTARLARALSPAFELSQWSSTEYSTWTESRWKDIRARIFLIASKELELITLTVGFGILIFSLIVTYCINAKADVLFIAPREPGAVSY

Aβ42/Aβ40 Ratio: 0.59 normalized to mock transfection (1.0)
B2: PAMPΔ312-340 (other, not shown: small tags and cut ends)
chain: NSVERKIYIPLNKTAPCVRLLNATHQIGCQSSISGDTGVIHVVEKEEDLQWVLTDGPNPPYMVLLESKHFTRDLMEKLKGRTSRIAGLAVSLTKPSPASGFSPSVQCPNDGFGVYSNSYGPEFAHCREIQWNSLGNGLAYEDFSFPIFLLEDENETKVIKQCYQDHNLSQNGSAPTFPLCAMQLFSHMHAVISTATCMRRSSIQSTFSINPEIVCDPLSDYNVWSMLKPINTTGTLKPDDRVVVAATRLDSRSFFWNVAPGAESAVASFVTQLAAAEASRMVYDMEKGKFPVQLENVDSFVELGQVALRTSLELWMHTDPVSQKNESVRNQVEDLLATLEKSGAGVPAVILRRPNQSQPLPPSSLQRFLRARNISGVVLADHSGAFHNKYYQSIYDTAENINVSYPEWLSPEEDLNFVTDTAKALADVATVLGRALYELAGGTNFSDTVQADPQTVTRLLYGFLIKANNSWFQSILRQDLRSYLGDGPLQHYIAVSSPTNTTYVVQYALANLTGTVVNLTREQCQDPSKVPSENKDLYEYSWVQGPLHSNETDRLPRCVRSTARLARALSPAFELSQWSSTEYSTWTESRWKDIRARIFLIASKELELITLTVGFGILIFSLIVTYCINAKADVLFIAPREPGAVSY
